In PMC3865065 (Nature, 2013):

Target: T1, extracellular Venus Flytrap (VFT) module of human GBR2 (human, UniProt O75899 42-466, carbohydrate at Asn404)
T1 sequence (looked up): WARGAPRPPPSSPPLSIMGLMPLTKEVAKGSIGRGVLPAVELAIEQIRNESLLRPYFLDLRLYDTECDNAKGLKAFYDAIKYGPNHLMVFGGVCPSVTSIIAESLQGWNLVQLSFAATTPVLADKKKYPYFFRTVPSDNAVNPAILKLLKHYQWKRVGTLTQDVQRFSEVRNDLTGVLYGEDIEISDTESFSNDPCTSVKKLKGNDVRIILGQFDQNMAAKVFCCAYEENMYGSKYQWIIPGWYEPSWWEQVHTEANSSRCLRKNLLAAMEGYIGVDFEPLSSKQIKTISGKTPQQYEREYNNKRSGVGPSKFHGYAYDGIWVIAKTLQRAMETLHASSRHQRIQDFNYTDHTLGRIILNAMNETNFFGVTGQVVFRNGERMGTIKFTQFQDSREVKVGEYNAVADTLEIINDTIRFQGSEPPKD
Test: crystal structure

B1: extracellular Venus Flytrap (VFT) module of human GBR1b (domain or fragment, UniProt Q9UBS5-2 48-459, looked up)
chain: SERRAVYIGALFPMSGGWPGGQACQPAVEMALEDVNSRRDILPDYELKLIHHDSKCDPGQATKYLYELLYNDPIKIILMPGCSSVSTLVAEAARMWNLIVLSYGSSSPALSNRQRFPTFFRTHPSATLHNPTRVKLFEKWGWKKIATIQQTTEVFTSTLDDLEERVKEAGIEITFRQSFFSDPAVPVKNLKRQDARIIVGLFYETEARKVFCEVYKERLFGKKYVWFLIGWYADNWFKIYDPSINCTVDEMTEAVEGHITTEIVMLNPANTRSISNMTSQEFVEKLTKRLKRHPEETGGFQEAPLAYDAIWALALALNKTSGGGGRSGVRLEDFNYNNQTITDQIYRAMNSSSFEGVSGHVVFDASGSRMAWTLIEQLQGGSYKKIGYYDSTKDDLSWSKTDKWIGGSPPAD
modifications: carbohydrate at Asn323 and Asn365 (seen in apo and antagonist-bound structures)
B1: binds.
